From the nanobody polyreactivity screen of Harvey et al. (2022)

Assay: yeast display, Sf9 membrane polyspecificity reagent, FACS + sequencing; frameworks hold sequencing errors
Procedure, shortened: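 Using colony PCR, genes from sorted yeast display clones were amplified, then sequenced on MiSeq at 2 × 250 and filtered by CDR length. The clones had been stained with 10% biotinylated, detergent-solubilized Sf9 membrane reagent for 1 hour at 4 °C and sorted by FACS into low and high (top ~1%) gates on anti-HA and streptavidin fluorescence. Polyreactivity labels come from the gate of origin.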

| Sequence | polyreactivity (PSR sort gate) |
| --- | --- |
| QVQLVESGGGLVQAGGSLRLSCAASGFIFYRYAMGRYRQAPGKERELVAAISWYGGTTYYADSVKGRFTISRDNAKNTVYLQMNSLKPEDTAVYYCAASRLRTEYYWGQGTQVTVSS | high polyreactivity |
| QVQLVESGGGLVQAGGSLRLSCAASGFIFYRYAMGWSRQAPGKERELVAAISWGGGSTTYYADSVKGRFTISRDNAKNTVYLQMNSLKPEDTAVYYCAAYIGKGYGSEYYYWGQGTQVTVSS | low polyreactivity |
| QVQLVESGGGLVQAGGSLRLSCAASGFIFYRYAMGWYRQAPGKERELVAAISRSGGSTYYADSVKGRFTISRDNAKNTVYLQMNSLKPEDTAVYYCAADRGSLAPGNDYWGQGTQVTVSS | high polyreactivity |
| QVQLVESGGGLVQAGGSLRLSCAASGFIFYRYAMGWYRQAPGKERELVAAISSSGGSTYYADSVKGRFTISRDNAKNTVYFQMNSLKPEDTAVYYCNKRPQQYRPGYDYWGQGTQVTVSS | high polyreactivity |
| QVQLVESGGGLVQAGGSLRLSCAASGFIFYRYAMGWYRQAPGKERELVAAITSSGGSTYYADSVKGRFTISRDNAKNTVYLQMNSLKPEDTAVYYCAARYTTSRYGYWGQGTQVTVSS | high polyreactivity |
| QVQLVESGGGLVQAGGSLRLSCAASGFIFYRYAMGWYRQAPGKERELVATIRYSGGSTYYADSVKGRFTISRDNAKNTVYLQMNSLKPEDTAVYYCNARRWYLPRRLYDYWGQGTQVTVSS | high polyreactivity |
| QVQLVESGGGLVQAGGSLRLSCAASGFIFYRYAMGWYRQAPGKERELVATISWSGGRTYYADSVKGRFTISRDNAKNTVYLQMNSLKPEDTAVYYCNAVNTHDYGYWGQGTQVTVSS | low polyreactivity |
| QVQLVESGGGLVQAGGSLRLSCAASGFIFYRYTMGWYRQAPGKERELVAAISGSGGSTYYADSVKGRFTISRDNAKNTVYLQMNSLKPEDTAVYYCAAAHRYWGQGTQVTVSS | high polyreactivity |
| QVQLVESGGGLVQAGGSLRLSCAASGFIFYSNAMGWYIQAPGKEREVVAAISWDAGSTYYADSVKGRFTISRDNAKNTVYLQMISLKPEDSAVYYCATDRIVGRYIYNYWGQGTQVTVSS | high polyreactivity |
| QVQLVESGGGLVQAGGSLRLSCAASGFIFYSNAMGWYRQAPGKARELVAAISWGGGRTYYADSVKGRFTISRDNAKNTVYLQMNSLKPEDTAVYYCAADTIVGNGIKFDYWGQGTQVTVSS | high polyreactivity |
| QVQLVESGGGLVQAGGSLRLSCAASGFIFYSYAMGWYRQAPGKERELVAAIDWDDGTTYYADSVKGRFTISRDNAKNTVYLQMNSLNPEDTAVYYCAAESYYGAYDYWGQGTQVTVSS | high polyreactivity |
| QVQLVESGGGLVQAGGSLRLSCAASGFIFYTYAMGWYRQAPGKERELVAAISRGGRTNYADSVKGRFTISRDNAKNTVYLQMNSLKPEDTAVYYCASSYSHRYDYWGQGTQVTVSS | high polyreactivity |
| QVQLVESGGGLVQAGGSLRLSCAASGFIFYTYAMGWYRQAPGKERELVAAISWNGGSTNYADSVKGRFTISRDNAKNTDYLQMNSLKPEDTAVYYCAARSVSTLRYTSRKLRYDYWGQGTQVTVSS | high polyreactivity |
| QVQLVESGGGLVQAGGSLRLSCAASGFIFYTYAMGWYRQAPGKERELVAAISWRGGRTYYADSVKGRFTISRDNAKNTVYLQMNSLKPEDTAVYYCNAVTSSGEYDYWGQGTQVTVSS | high polyreactivity |
| QVQLVESGGGLVQAGGSLRLSCAASGFIFYWYAMGWYRQAHGKERELVARITQSVGRTYYADSVKGRFTISRDNAKNTVYLQMNSLKPEDTAVHYCATDYGSYWSGAAYERYDYWGQGTQVTVSS | low polyreactivity |
| QVQLVESGGGLVQAGGSLRLSCAASGFIFYYNAMGWYRHAPGKERELDAGISRSAGSTYYADSVKGRFTISRDNAKNSVYLHMNSLTPEDTAVYYCAARYLSYITGTSYYWGQVTQVTVSS | low polyreactivity |
| QVQLVESGGGLVQAGGSLRLSCAASGFIFYYNGMGRYRQAPGKERELVAAISGGVGSTYYADSVKGRFTISRDNAKNTVYLQMNSLKPEDTAVYYCNAKLYKPPFDYWGQGTQVTLSS | low polyreactivity |
| QVQLVESGGGLVQAGGSLRLSCAASGFIFYYYAMGWYRPAPGKERELVAAISGESTSTYYADSVKGRFTISRDNAKNTVYLQMNSLKPEDTALYYCAADLYHWDGYEYWGQGTQVTVST | high polyreactivity |
| QVQLVESGGGLVQAGGSLRLSCAASGFIFYYYAMGWYRPAPGKERELVAAISGSGGSTYYADSVKGRFTISRDNAKNTGYLQMNSMNPEDTAVYYCAAVQAAGSHAYDYWGQGTQVTVSS | high polyreactivity |
| QVQLVESGGGLVQAGGSLRLSCAASGFIFYYYAMGWYRQAPGKERELVAAITQGGGSTYYADSVKGRFTISRDNAKNTVFLQMNSLKPEDTAVYYCAAVKRVYAHSRAFSSDFYYWGQGTQVTVSS | high polyreactivity |
| QVQLVESGGGLVQAGGSLRLSCAASGFIGWYAMGWYRQAPGNEREFVAAISASGGSTYYADSVKGRFTISRDNAKNTVYLQMNSLKPEETAVYYCAAYYRAYNPRRFYYWGQGTQVTVSS | high polyreactivity |

| Sequence | polyreactivity (PSR sort gate) |
| --- | --- |
| QVQLVESGGGLVQAGGSLRLSCAASGFIIDDNTMGWYRQAPGKEMELVAAISYSAGSTYYADSVKGRFTISRDNAKNTVYLQMNSVKPEDTAVYYCAAQHYWVTSYLSSSDYWGQGTQVTVSS | low polyreactivity |
| QVQLVESGGGLVQAGGSLRLSCAASGFIIDGYAMGWYRQAPVKERELVAVISQRGSNTYYADSVKGRFTISRDNAKNTVYLQMNSLKPEDTAVYYCAARYKQGDSTGGRMNYWGQGTQVTVSS | high polyreactivity |
| QVQLVESGGGLVQAGGSLRLSCAASGFIIDSNAMGWYRQAPGKERELVAAIDYSGGSTYYADSVKGRFTISRDNAKNTVYLQMNSLKPEDTAFYYCAAEYHGYRYNYYPYSHYFIYEYWGQGTQVTVSS | high polyreactivity |
| QVQLVESGGGLVQAGGSLRLSCAASGFIIGSYAMGWYRQAPGTERELVAAITRSGGNTYYADSVKGRFTISRDNAKNTVYLQMNSLKPEDTAVYYCAAYSGYWYDYWGQGTQVTVSS | high polyreactivity |
| QVQLVESGGGLVQAGGSLRLSCAASGFIIGYYAMGWYRQAPGKERDLVAAISSTGGSTYYADSVKGRFTISRDNAMNTVYLQMNSLKPEDTAVYYCAKRFAYYRYHPGYDYWGQVTQVTVSS | high polyreactivity |
| QVQLVESGGGLVQAGGSLRLSCAASGFIIKSYAMGWYRQAPGKERELVAAISYTGSITYYADSVKGRFTISRDNAKNTVYLQMNSLKPEDTSVYYCAVGRYADQNDYWGQGTQVTVSS | high polyreactivity |
| QVQLVESGGGLVQAGGSLRLSCAASGFIIKWYAMGWYRQAPGKERELLAAISIDGGSTYYADSVKGRFTISRDNAKNTVYLQMNSLLPEDTAVYYCNAGYNGTQYLTRDYGLGMDYWGLGTQVTVSS | low polyreactivity |
| QVQLVESGGGLVQAGGSLRLSCAASGFIIQGNAMGWYRQAPGKERELVAAISSCVSTYYADSVKGRFTISRDNAKNTVYLQMNSLKPEDTAVYYCNAGFPLSLWLGDYWGQGTHVTVSS | low polyreactivity |
| QVQLVESGGGLVQAGGSLRLSCAASGFIISHYAMGWYRQAPGKERELVAAISSSGGSTYYADSVKGRFTISRDNAKNTVYLQMNSLKPEDTAVYYCAAAAGAYDYDYWGQGTQVNVSS | high polyreactivity |
| QVQLVESGGGLVQAGGSLRLSCAASGFIISPYAMGWYRQAPGKERELVAAISWSGVSTYYADSVKGRFTISRDNAKNTVYLQMNSLKPEDTAVYYCATYRPVYYWGQGTQVTVSS | high polyreactivity |
| QVQLVESGGGLVQAGGSLRLSCAASGFIISPYARGWYRQAPGKETELVAAISWSGVSTYYADSVKGRFTMSRDNAKNTVYLQMNSLNPEDTAVYYCAADPYCVKYRYGDDYWGQGTQVTVSS | high polyreactivity |
| QVQLVESGGGLVQAGGSLRLSCAASGFIISVYAMGWYRPAPGKERELVARIDSGGSTYYADSVKGRFTISRDNAKNTVYLQMNSLKPEDTAVYYGATDEGTVGGQQLRPLMDYWGQGTQVTVSS | low polyreactivity |
| QVQLVESGGGLVQAGGSLRLSCAASGFIITSYAMGWYRQAPGKERELVAAINGGGSTYYADSVKGRFTISRDNAKNTVYLQMNSLKPEDTAVYYCAAKFRAGRSSYYWGQGTQVTVSS | high polyreactivity |
| QVQLVESGGGLVQAGGSLRLSCAASGFIITTYAMGWYRQAPGTEREVVAGISSSGGSTRYADSVKGRFTISRDNAKNTVYLQMNSLKPEDTAVYYCNVLRYRGYDYWGQGTQVTVSS | high polyreactivity |
| QVQLVESGGGLVQAGGSLRLSCAASGFIIVRNALGWYRQAPGKERELVAAMRWSGGSTYYADSEKGRFTISRDNSKNTDYLQMNSLKPEDTAVYYCAARLWLKVQYLRFFVYDYWGQGTQVTVSS | low polyreactivity |
| QVQLVESGGGLVQAGGSLRLSCAASGFIIYGYAMGWYRQAPGKESELVAAISRRSASTYYADSVKGRFTISRDNAKNTVYLQMNSLNPEDTAVYYCNAASARGVIGYKPLWYARGYWGQGTQVTVSS | high polyreactivity |
| QVQLVESGGGLVQAGGSLRLSCAASGFIIYRNPMGWYRQAPGKERELVAGISSGGSTNYADSVKGRFTISRDNEKNTVYLQMNSLKPEDTAVYYCASRVYALWFGRYDYWGQGTQVIVSS | high polyreactivity |
| QVQLVESGGGLVQAGGSLRLSCAASGFIIYSYAMGWYRQAPGKERELVAVISSRGGTTYYADSVKGRFTISRDNAKNTVYLQMNSLKPEDTAVYSCNVDRLGQRSDYWGQGTQVTVSS | low polyreactivity |
| QVQLVESGGGLVQAGGSLRLSCAASGFILATYAMGCYRQAPGKERELVAAISASGSSTYYADSVKGRFTISRDNAKNTVYLQMNSLKPEDTAVYYCAASWGYGALTPDMGYWGQGTQVTVSS | low polyreactivity |
| QVQLVESGGGLVQAGGSLRLSCAASGFILAYYAMGWSRQAPGKERELVAAISIGSSTDYADSVKGRFTISRDNAKNTVYLQINSVKPEDTAVYDFAARDYYYEYDYWGQGTQVTVSS | low polyreactivity |
